# Results reported in article PMC13086950 (Nature Communications, 2026).
# B1: Full-length gephyrin, splice variant P1 (natural protein)
# chain: MAHHHHHHGGSSGGSSEFMATEGMILTNHDHQIRVGVLTVSDSCFRNLAEDRSGINLKDLVQDPSLLGGTISAYKIVPDEIEEIKETLIDWCDEKELNLILTTGGTGFAPRDVTPEATKEVIEREAPGMALAMLMGSLNVTPLGMLSRPVCGIRGKTLIINLPGSKKGSQECFQFILPALPHAIDLLRDAIVKVKEVHDELEDLPSPPPPLSPPPTTSPHKQTEDKGVQCEEEEEEKKDSGVASTEDSSSSHITAAALAAKIPDSIISRGVQVLPRDTASLSTTPSESPRAQATSRLSTASCPTPKVQSRCSSKENILRASHSAVDITKVARRHRMSPFPLTSMDKAFITVLEMTPVLGTEIINYRDGMGRVLAQDVYAKDNLPPFPASVKDGYAVRAADGPGDRFIIGESQAGEQPTQTVMPGQVMRVTTGAPIPCGADAVVQVEDTELIRESDDGTEELEVRILVQARPGQDIRPIGHDIKRGECVLAKGTHMGPSEIGLLATVGVTEVEVNKFPVVAVMSTGNELLNPEDDLLPGKIRDSNRSTLLATIQEHGYPTINLGIVGDNPDDLLNALNEGISRADVIITSGGVSMGEKDYLKQVLDIDLHAQIHFGRVFMKPGLPTTFATLDIDGVRKIIFALPGNPVSAVVTCNLFVVPALRKMQGILDPRPTIIKARLSCDVKLDPRPEYHRCILTWHHQEPLPWAQSTGNQMSSRLMSMRSANGLLMLPPKTEQYVELHKGEVVDVMVIGRL
# Key:
# [1] = molecular target: the molecule itself; assay: SEC-MALS; fraction A1 of GephFL, 100 μL at 1.3 mg/mL, Superose 6 Increase 10/300 GL, 20 mM HEPES pH 8.0, 150 mM NaCl, 1 mM EDTA, 5 mM β-mercaptoethanol
# [2] = molecular target: the molecule itself; assay: SEC-MALS; fraction A2’ of GephFL, 100 μL at 1.3 mg/mL, Superose 6 Increase 10/300 GL, 20 mM HEPES pH 8.0, 150 mM NaCl, 1 mM EDTA, 5 mM β-mercaptoethanol
# [3] = molecular target: the molecule itself; assay: SEC-MALS; fraction B1’ of GephFL, 100 μL at 1.2 mg/mL, Superose 6 Increase 10/300 GL, 20 mM HEPES pH 8.0, 150 mM NaCl, 1 mM EDTA, 5 mM β-mercaptoethanol
protein,measurement,setting,value
B1,stoichiometry N,[1],~6
same,stoichiometry N,[2],~4
same,stoichiometry N,[3],2
